In publication PMC11088876 (2024):

Experiments:
[1] = biological target: T1, Recombinant human ActRIIB-Fc (human, UniProt Q13705 19-137); assay: SPR
T1 chain: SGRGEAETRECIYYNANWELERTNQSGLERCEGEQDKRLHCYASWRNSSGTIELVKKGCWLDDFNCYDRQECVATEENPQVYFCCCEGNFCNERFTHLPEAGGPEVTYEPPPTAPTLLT

[2] = biological target: Recombinant human ActRIIA-Fc (human, UniProt P27037 20-135); assay: SPR
Chain of Recombinant human ActRIIA-Fc (P27037 20-135): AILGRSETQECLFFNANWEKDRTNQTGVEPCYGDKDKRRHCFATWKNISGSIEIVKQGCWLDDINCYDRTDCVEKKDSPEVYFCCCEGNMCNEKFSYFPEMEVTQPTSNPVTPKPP

B1: Recombinant human ActE (bacterially derived, provided by R&D Systems) (ligand)
chain: TPTCEPATPLCCRRDHYVDFQELGWRDWILQPEGYQLNYCSGQCPPHLAGSPGIAASFHSAVFSLLKANNPWPASTSCCVPTARRPLSLLYLDHNGNVVKTDVPDMVVEACGCS
- Kd [1]: 0.02 µM
- Kd [2]: 0.005 µM
